Test results taken from paper PMC2873897 (Nature structural & molecular biology, 2010).

Legend:
[1] = biological target: E-cadherin ectodomain (Mus musculus) (UniProt P09803); assay: AUC; conditions: cited from earlier work
[2] = biological target: T cadherin EC1-2 R14E/D140K (charge reversal rescue mutant) (mouse); assay: AUC
[3] = biological target: E cadherin EC1-2 wild-type (WT) (mouse); assay: AUC
[4] = biological target: T-cadherin EC1-2 wild-type (mouse) (UniProt Q9WTR5); assay: SPR
[5] = biological target: C-cadherin ectodomain (Xenopus laevis) (UniProt P33148); assay: AUC; conditions: cited from earlier work
[6] = biological target: T cadherin EC1-2 G extension (mouse) (UniProt Q9WTR5); assay: AUC
[7] = biological target: E cadherin EC1-2 W2A (mouse); assay: AUC
[8] = biological target: E cadherin EC1-2 MR extension (mouse); assay: AUC
[9] = biological target: T cadherin EC1-2 I2A (mouse); assay: AUC
AUC [10] = biological target: the molecule itself; assay: AUC
AUC [11] = biological target: the molecule itself; assay: AUC; remark: listed apart in the source

E-cadherin ectodomain (from UniProt P09803)
Kd [1]: 80 µM

T cadherin EC1-2 R14E/D140K (charge reversal rescue mutant) (domain or fragment)
Kd [2]: 149 µM

E cadherin EC1-2 wild-type (WT) (domain or fragment)
Kd [3]: 98.6 µM

T-cadherin EC1-2 R14S (domain or fragment)
fold reduction of the binding level against wild type [4]: 5 fold

C-cadherin ectodomain (from UniProt P33148)
Kd [5]: 64 µM

T cadherin EC1-2 G extension (from UniProt Q9WTR5 140-355) (domain or fragment)
Kd [6]: 16.5 µM

E cadherin EC1-2 W2A (domain or fragment)
Kd [7]: 916 µM

T-cadherin EC1-2 R14S D140S (domain or fragment)
fold reduction of the binding level against wild type [4]: > 5 fold

E cadherin EC1-2 MR extension (domain or fragment)
Kd [8]: 258 µM

T cadherin EC1-2 I2A (domain or fragment)
Kd [9]: 37.1 µM

B1: T-cadherin EC1-2 wild-type (domain or fragment, mouse)
chain: IVVSPILIPENQRQPFPRDVGKVVDSDRPEGSKFRLTGKGVDQDPKGTFRINENTGSVSVTRTLDRETIATYQLYVETTDASGKTLEGPVPLEVIVIDQNDNRPIFREGPYIGHVMEGSPTGTTVMRMTAFDADDPATDNALLRYNIRQQTPDKPSPNMFYIDPEKGDIVTVVSPALLDRETLENPKYELIIEAQDMAGLDVGLTGTATATIVIDD
Kd (AUC [10]): 41.4 ± 1.7 µM | stoichiometry N (AUC [11]): 2
